± gives the standard deviation of the averaged measurements.
Tested on: ATP
Assay: switch fluorescence ratio, 500 uM ATP over buffer (Cy3 cluster intensity, sum of 5 cycles each) (fold (ratio)); higher = stronger signal-on switching upon ATP binding; sequences stand for … in TCGTCGGCAGCGTCAGATGTGTATAAGAGACAGTTTTTTTTTTTTTTTTTTTTTTTTT…TC
Conditions: aptamer strand: ATP DNA aptamer (quencher-CACCTGGGGGAGTATTGCGGAGGAAGG + anchor), 100 nM annealed; ATP concentration: 500 uM
Procedure, shortened: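 Imaging in selection buffer was followed by imaging after 15 min with 500 uM ATP at 22 °C, for Cy3-labelled switching-strand clusters annealed to 100 nM quencher-labelled ATP aptamer on a modified Illumina MiSeq flow-cell. Five of these buffer/ATP cycles ran, separated by NaOH stripping and re-annealing. The fluorescence ratio per cluster is summed target-cycle over summed buffer-cycle Cy3 intensity, averaged per switch-domain sequence; clusters outside 100-1000 RFU were removed.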
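Note: ATP exposure 15 min at 22 °C before imaging.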

## GGGGTTTATG
  switch fluorescence ratio: 0.975 ± 0.028

## GGGGTTTCTC
  switch fluorescence ratio: 1.02 ± 0.031

## GGGGTTTTAC
  switch fluorescence ratio: 0.995 ± 0.036

## GGGGTTTTCA
  switch fluorescence ratio: 1.022 ± 0.0042

## GGGTAAAGAA
  switch fluorescence ratio: 1.01 ± 0.036

## GGGTAAATAG
  switch fluorescence ratio: 1.034 ± 0.007

## GGGTAAATGC
  switch fluorescence ratio: 1.01 ± 0.1

## GGGTAACGGA
  switch fluorescence ratio: 1.03 ± 0.04

## GGGTAACTTT
  switch fluorescence ratio: 1.08 ± 0.07

## GGGTAAGAG
  switch fluorescence ratio: 1.029 ± 0.0042

## GGGTAAGCCC
  switch fluorescence ratio: 0.987 ± 0.015

## GGGTAAGCCG
  switch fluorescence ratio: 0.918 ± 0.02

## GGGTAAGCTG
  switch fluorescence ratio: 1.04 ± 0.081

## GGGTAAGGCT
  switch fluorescence ratio: 1.01 ± 0.032

## GGGTAAGGGT
  switch fluorescence ratio: 1.13 ± 0.37

## GGGTAATGCA
  switch fluorescence ratio: 1.033 ± 0.0053

## GGGTAATGGC
  switch fluorescence ratio: 0.971 ± 0.014

## GGGTACAGGA
  switch fluorescence ratio: 0.99686 ± 5.1e-05

## GGGTACCTAC
  switch fluorescence ratio: 1.06 ± 0.042

## GGGTACGAGT
  switch fluorescence ratio: 0.9314 ± 0.0031

## GGGTACGTTC
  switch fluorescence ratio: 1.01 ± 0.023

## GGGTACGTTG
  switch fluorescence ratio: 1.01 ± 0.016

## GGGTACGTTT
  switch fluorescence ratio: 0.97231 ± 0.00073

## GGGTAGAAAA
  switch fluorescence ratio: 1.01 ± 0.043

## GGGTAGACAG
  switch fluorescence ratio: 0.9316 ± 0.0069

## GGGTAGAGTT
  switch fluorescence ratio: 0.9659 ± 0.0052

## GGGTAGCTTG
  switch fluorescence ratio: 0.989 ± 0.03

## GGGTAGGTTT
  switch fluorescence ratio: 1.02 ± 0.059

## GGGTAGTAGT
  switch fluorescence ratio: 0.958 ± 0.035

## GGGTAGTCTG
  switch fluorescence ratio: 1 ± 0.049

## GGGTATCCTC
  switch fluorescence ratio: 0.986 ± 0.037

## GGGTATCCTT
  switch fluorescence ratio: 1.01 ± 0.025

## GGGTATGAGC
  switch fluorescence ratio: 0.969 ± 0.04

## GGGTATGCGG
  switch fluorescence ratio: 0.978 ± 0.042

## GGGTATGCTG
  switch fluorescence ratio: 0.9479 ± 0.0067

## GGGTATGGTT
  switch fluorescence ratio: 0.998 ± 0.028

## GGGTATGTTG
  switch fluorescence ratio: 0.978 ± 0.032

## GGGTATTATT
  switch fluorescence ratio: 1.022 ± 0.0047

## GGGTATTGGT
  switch fluorescence ratio: 0.996 ± 0.025

## GGGTATTTTA
  switch fluorescence ratio: 0.988 ± 0.057

## GGGTCAACGA
  switch fluorescence ratio: 1.03 ± 0.051

## GGGTCAGCTG
  switch fluorescence ratio: 0.986 ± 0.036

## GGGTCAGTAG
  switch fluorescence ratio: 1.032 ± 0.0087

## GGGTCATGTC
  switch fluorescence ratio: 0.934 ± 0.052

## GGGTCATTCA
  switch fluorescence ratio: 0.9922 ± 0.0049

## GGGTCCGCTG
  switch fluorescence ratio: 1.06 ± 0.07

## GGGTCCGGTC
  switch fluorescence ratio: 1.0075 ± 7.9e-05

## GGGTCCTGGG
  switch fluorescence ratio: 0.973 ± 0.012

## GGGTCGATGT
  switch fluorescence ratio: 1.02 ± 0.056

## GGGTCGCAGA
  switch fluorescence ratio: 1.04 ± 0.058

## GGGTCGCCAT
  switch fluorescence ratio: 1 ± 0.028

## GGGTCGGGTT
  switch fluorescence ratio: 0.972 ± 0.037

## GGGTCGGTTT
  switch fluorescence ratio: 1.01 ± 0.019

## GGGTCGTCAT
  switch fluorescence ratio: 1.01 ± 0.015

## GGGTCTAGGT
  switch fluorescence ratio: 0.997 ± 0.03

## GGGTCTCATC
  switch fluorescence ratio: 1.02 ± 0.065

## GGGTCTTAAT
  switch fluorescence ratio: 0.981 ± 0.031

## GGGTCTTATG
  switch fluorescence ratio: 1.03 ± 0.078

## GGGTCTTGTA
  switch fluorescence ratio: 0.99 ± 0.016

## GGGTCTTTGT
  switch fluorescence ratio: 0.981 ± 0.026

## GGGTGAAGGT
  switch fluorescence ratio: 0.9866 ± 0.0047

## GGGTGAAGTT
  switch fluorescence ratio: 0.984 ± 0.036

## GGGTGAATGT
  switch fluorescence ratio: 0.993 ± 0.041

## GGGTGACAAC
  switch fluorescence ratio: 1.002 ± 0.0084

## GGGTGACCAA
  switch fluorescence ratio: 0.969 ± 0.013

## GGGTGACGGT
  switch fluorescence ratio: 1.01 ± 0.04

## GGGTGAGATA
  switch fluorescence ratio: 1.07 ± 0.011

## GGGTGAGTG
  switch fluorescence ratio: 0.996 ± 0.016

## GGGTGATCGA
  switch fluorescence ratio: 0.98 ± 0.054

## GGGTGATGAA
  switch fluorescence ratio: 1 ± 0.045

## GGGTGATGGA
  switch fluorescence ratio: 0.991 ± 0.026

## GGGTGATGTG
  switch fluorescence ratio: 0.955 ± 0.022

## GGGTGCATGT
  switch fluorescence ratio: 0.99 ± 0.02

## GGGTGCTGGG
  switch fluorescence ratio: 0.999 ± 0.042

## GGGTGGAAAA
  switch fluorescence ratio: 0.997 ± 0.048

## GGGTGGACAG
  switch fluorescence ratio: 0.975 ± 0.017

Reference: the supplement of paper PMC10126150
